Laboratory results from the supplement of paper PMC10065799, “High-throughput profiling of sequence recognition by tyrosine kinases and SH2 domains using bacterial peptide display” (eLife, 2023).

Assays:
[1] = biological target: Grb2 SH2 (UniProt P62993); experiment: SH2 binding enrichment of the phosphorylated peptide, bacterial display (enrichment ratio); higher = better substrate or ligand; peptides without Tyr show the background
[2] = biological target: SHP2-C SH2; experiment: as above
[3] = biological target: c-Src SH2; experiment: as above
[4] = tested on: c-Src; experiment: phosphorylation enrichment, bacterial display (enrichment ratio); higher = better substrate or ligand; peptides without Tyr show the background
[5] = tested on: Fer (mouse); experiment: as above
[6] = tested on: AncSZ; experiment: as above
[7] = biological target: FGFR3 (UniProt P22607); experiment: as above
[8] = biological target: FGFR1 (UniProt P11362); experiment: as above
Chain of FGFR1 (P11362 whole entry, looked up): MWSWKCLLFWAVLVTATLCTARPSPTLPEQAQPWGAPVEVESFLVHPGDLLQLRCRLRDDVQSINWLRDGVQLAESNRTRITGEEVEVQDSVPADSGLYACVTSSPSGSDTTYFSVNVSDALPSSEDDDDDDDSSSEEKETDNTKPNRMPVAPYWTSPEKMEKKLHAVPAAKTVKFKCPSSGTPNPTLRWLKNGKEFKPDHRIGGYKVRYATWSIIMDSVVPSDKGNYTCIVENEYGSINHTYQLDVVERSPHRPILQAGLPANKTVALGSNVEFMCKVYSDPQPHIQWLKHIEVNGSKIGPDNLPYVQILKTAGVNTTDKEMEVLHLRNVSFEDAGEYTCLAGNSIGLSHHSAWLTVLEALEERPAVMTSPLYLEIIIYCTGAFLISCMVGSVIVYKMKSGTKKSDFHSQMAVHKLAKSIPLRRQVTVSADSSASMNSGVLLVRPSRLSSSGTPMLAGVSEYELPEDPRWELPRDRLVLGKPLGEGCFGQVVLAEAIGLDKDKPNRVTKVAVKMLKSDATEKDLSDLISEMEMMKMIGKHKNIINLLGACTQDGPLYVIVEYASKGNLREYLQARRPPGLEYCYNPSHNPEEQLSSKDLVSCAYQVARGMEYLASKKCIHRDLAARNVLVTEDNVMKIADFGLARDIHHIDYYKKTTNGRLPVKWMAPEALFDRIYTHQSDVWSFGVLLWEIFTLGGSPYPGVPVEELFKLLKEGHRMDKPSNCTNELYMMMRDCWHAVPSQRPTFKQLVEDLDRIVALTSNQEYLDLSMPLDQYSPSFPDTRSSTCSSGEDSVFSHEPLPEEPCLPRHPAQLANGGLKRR

[9] = tested on: c-Abl (mouse); experiment: as above
[10] = biological target: Fyn (UniProt P06241); experiment: as above
Chain of Fyn (P06241 whole entry, looked up): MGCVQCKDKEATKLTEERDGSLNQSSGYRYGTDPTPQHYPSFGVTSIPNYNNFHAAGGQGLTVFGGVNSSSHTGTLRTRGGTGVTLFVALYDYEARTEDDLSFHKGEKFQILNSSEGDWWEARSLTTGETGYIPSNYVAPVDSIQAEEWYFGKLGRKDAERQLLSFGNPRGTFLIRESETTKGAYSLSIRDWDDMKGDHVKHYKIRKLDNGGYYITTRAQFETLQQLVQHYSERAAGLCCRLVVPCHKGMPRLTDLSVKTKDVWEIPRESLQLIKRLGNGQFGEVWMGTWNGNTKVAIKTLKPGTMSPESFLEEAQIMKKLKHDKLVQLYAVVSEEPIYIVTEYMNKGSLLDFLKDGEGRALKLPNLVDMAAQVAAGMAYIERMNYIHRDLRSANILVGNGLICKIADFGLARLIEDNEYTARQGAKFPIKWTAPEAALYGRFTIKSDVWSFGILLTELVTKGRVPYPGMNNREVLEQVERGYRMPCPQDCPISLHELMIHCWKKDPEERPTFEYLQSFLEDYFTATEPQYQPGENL

[11] = biological target: Hck (UniProt P08631); experiment: as above
[12] = biological target: EPHB2 (UniProt P29323); experiment: as above
Chain of EPHB2 (P29323 whole entry, looked up): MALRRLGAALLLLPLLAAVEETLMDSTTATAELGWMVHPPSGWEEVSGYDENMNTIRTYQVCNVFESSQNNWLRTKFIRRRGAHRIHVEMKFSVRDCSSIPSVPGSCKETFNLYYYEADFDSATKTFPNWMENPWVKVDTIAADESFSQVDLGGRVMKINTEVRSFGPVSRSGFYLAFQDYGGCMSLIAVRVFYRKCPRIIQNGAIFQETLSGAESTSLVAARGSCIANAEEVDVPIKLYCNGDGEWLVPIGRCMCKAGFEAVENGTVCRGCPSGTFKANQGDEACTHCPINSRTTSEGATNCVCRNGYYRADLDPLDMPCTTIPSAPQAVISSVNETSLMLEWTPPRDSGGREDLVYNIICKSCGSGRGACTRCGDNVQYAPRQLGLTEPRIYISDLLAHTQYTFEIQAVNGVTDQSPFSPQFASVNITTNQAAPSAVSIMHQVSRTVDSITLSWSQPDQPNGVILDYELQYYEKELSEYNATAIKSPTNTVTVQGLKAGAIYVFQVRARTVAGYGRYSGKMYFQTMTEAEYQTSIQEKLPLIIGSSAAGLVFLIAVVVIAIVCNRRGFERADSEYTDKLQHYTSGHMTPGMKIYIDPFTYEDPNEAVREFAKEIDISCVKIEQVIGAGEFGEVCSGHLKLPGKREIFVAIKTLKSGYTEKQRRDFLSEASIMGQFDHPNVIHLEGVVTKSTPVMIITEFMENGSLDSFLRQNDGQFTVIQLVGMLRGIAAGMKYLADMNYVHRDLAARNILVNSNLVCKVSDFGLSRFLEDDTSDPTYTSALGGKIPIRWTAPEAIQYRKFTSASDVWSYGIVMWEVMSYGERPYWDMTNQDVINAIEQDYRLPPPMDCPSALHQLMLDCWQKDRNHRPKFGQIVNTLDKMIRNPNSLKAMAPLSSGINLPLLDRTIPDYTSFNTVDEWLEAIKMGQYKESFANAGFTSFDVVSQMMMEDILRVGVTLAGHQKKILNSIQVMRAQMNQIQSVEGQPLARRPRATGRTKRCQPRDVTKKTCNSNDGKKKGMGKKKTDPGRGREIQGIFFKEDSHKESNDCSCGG

[13] = biological target: EPHB1 (UniProt P54762); experiment: as above
[14] = biological target: Jak2 (UniProt O60674); experiment: as above
Chain of Jak2 (O60674 whole entry, looked up): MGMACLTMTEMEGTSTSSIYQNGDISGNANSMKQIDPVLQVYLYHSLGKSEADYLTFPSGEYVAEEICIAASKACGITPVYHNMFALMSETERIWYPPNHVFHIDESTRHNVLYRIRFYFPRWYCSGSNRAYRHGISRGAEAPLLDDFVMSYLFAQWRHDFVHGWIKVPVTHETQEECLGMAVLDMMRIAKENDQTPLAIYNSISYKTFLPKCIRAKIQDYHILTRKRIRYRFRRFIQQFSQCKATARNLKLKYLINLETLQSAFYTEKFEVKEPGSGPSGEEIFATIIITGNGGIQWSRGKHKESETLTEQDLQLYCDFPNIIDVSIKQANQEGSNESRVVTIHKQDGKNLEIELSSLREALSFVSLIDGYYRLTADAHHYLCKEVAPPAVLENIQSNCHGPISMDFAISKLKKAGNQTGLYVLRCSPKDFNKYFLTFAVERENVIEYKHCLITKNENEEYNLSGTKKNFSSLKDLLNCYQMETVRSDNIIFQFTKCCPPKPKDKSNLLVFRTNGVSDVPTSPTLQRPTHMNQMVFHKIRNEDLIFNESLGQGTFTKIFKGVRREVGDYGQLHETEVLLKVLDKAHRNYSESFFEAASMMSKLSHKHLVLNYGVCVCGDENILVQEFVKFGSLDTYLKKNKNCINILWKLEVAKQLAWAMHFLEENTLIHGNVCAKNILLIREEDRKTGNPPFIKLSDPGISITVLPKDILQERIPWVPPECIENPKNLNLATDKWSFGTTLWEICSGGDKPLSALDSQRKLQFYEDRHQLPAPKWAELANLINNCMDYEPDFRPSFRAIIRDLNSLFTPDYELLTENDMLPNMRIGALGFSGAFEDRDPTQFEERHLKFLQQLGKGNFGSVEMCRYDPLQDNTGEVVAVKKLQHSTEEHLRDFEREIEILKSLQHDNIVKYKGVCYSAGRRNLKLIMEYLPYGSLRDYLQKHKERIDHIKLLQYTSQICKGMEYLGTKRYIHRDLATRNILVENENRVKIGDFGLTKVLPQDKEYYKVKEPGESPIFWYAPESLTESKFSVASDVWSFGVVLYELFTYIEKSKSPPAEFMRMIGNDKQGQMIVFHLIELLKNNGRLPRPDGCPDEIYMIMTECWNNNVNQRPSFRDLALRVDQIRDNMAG

[15] = biological target: Fes (UniProt P07332); experiment: as above
[16] = biological target: MERTK (UniProt Q12866); experiment: as above
Chain of MERTK (Q12866 whole entry, looked up, the tested form may be a part): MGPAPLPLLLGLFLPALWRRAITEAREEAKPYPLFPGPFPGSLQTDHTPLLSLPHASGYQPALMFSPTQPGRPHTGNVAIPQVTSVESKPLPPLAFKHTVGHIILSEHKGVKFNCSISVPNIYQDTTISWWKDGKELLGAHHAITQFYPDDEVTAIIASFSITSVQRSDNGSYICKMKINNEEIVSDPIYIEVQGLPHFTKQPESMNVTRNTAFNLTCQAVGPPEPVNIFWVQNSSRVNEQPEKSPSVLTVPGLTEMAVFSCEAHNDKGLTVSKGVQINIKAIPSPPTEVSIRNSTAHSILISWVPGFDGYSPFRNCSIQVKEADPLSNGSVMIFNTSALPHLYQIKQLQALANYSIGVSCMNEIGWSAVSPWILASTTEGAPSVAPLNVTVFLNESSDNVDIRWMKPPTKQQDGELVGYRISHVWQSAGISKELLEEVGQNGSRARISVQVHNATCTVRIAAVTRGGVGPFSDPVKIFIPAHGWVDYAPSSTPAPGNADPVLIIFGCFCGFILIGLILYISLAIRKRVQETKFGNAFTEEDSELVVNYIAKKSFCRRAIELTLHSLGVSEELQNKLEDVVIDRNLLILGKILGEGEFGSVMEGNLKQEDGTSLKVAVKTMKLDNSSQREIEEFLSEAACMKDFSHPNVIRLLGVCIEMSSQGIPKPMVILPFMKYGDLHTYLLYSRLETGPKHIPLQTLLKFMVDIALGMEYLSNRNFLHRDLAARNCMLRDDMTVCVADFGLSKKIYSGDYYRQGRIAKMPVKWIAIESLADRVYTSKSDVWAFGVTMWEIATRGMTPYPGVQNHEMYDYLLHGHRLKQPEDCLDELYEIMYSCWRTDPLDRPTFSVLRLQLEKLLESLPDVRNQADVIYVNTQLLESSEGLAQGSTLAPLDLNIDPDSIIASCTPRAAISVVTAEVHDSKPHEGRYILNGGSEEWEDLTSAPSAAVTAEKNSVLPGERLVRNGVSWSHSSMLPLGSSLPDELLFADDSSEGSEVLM
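Wherever SH2 binding enrichment of the phosphorylated peptide, bacterial display is given: peptide library displayed on the E. coli surface as eCPX fusions, selected cells deep-sequenced, score is each peptide's frequency after selection divided by its frequency in the input.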
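Wherever phosphorylation enrichment, bacterial display is given: 11-residue human phosphosite peptides and single-mutation variants displayed on the E. coli surface, counted by deep sequencing, each peptide's frequency after selection divided by its frequency in the unselected input library; frequency after pTyr selection over input frequency; kinase dosed for 20-30% of maximal phosphorylation in three min.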

Chain of Grb2 SH2 (P62993 whole entry, looked up): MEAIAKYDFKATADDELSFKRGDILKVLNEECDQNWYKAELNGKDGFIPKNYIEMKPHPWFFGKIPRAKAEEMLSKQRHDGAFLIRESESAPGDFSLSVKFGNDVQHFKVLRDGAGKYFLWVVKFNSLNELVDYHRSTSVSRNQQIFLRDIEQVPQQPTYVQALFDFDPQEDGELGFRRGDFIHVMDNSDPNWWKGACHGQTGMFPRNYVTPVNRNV

Sequence | SH2 binding enrichment [1] | SH2 binding enrichment [2] | SH2 binding enrichment [3] | phosphorylation enrichment [4] | phosphorylation enrichment [5] | phosphorylation enrichment [6] | phosphorylation enrichment [7] | phosphorylation enrichment [8] | phosphorylation enrichment [9] | phosphorylation enrichment [10] | phosphorylation enrichment [11] | phosphorylation enrichment [12] | phosphorylation enrichment [13] | phosphorylation enrichment [14] | phosphorylation enrichment [15] | phosphorylation enrichment [16]
FADIAYNFRQG [PAH_Y166_H170Q_YF] | 0.77 | 0.694 | 0.443 | 0.5 | 0.35 | 0.772 | 0.601 | 0.398 | 0.665 | 0.425 | 0.505 | 0.486 | 0.47 | 0.701 | 0.86 | 0.41
MANFMYKAGPS [MAML2_Y515_YF] | 1.03 | 0.838 | 0.593 | 0.41 | 0.386 | 0.947 | 0.44 | 0.378 | 0.534 | 0.383 | 0.39 | 0.525 | 0.367 | 0.739 | 0.68 | 0.339
PNKAVYTKMMT [G6PD_Y401_E398K] | 0.959 | 4.8 | 3.63 | 0.601 | 0.656 | 0.65 | 0.423 | 0.661 | 0.426 | 0.422 | 0.437 | 0.519 | 0.467 | 0.59 | 0.562 | 0.332
FEGHSYSACTT [MMP9_Y241_R239H] | 0.869 | 0.642 | 2.25 | 0.59 | 0.644 | 0.95 | 0.656 | 0.533 | 1.34 | 0.512 | 0.486 | 0.524 | 0.617 | 1.03 | 1.1 | 0.562
PELINYHQHNS [BTK_Y361] | 1 | 0.767 | 0.466 | 0.68 | 0.664 | 0.981 | 1.02 | 1.27 | 0.561 | 0.648 | 0.69 | 0.769 | 0.666 | 1 | 1.06 | 0.579
CYSSEYHYVGG [CTSC_Y345_Y340C] | 0.884 | 0.943 | 2.04 | 2.02 | 1.26 | 4.45 | 9.68 | 13 | 2.79 | 1.57 | 2.29 | 5.91 | 5.54 | 1.77 | 1.1 | 4.76
KNRDVSSSDFF [USP24_Y2134_Y2134S_YF] | 0.882 | 0.635 | 0.424 | 0.399 | 0.427 | 0.701 | 0.539 | 0.365 | 0.583 | 0.432 | 0.425 | 0.393 | 0.444 | 0.641 | 0.71 | 0.436
RSAGKDDVFLI [MECP2_Y120_Y120D_YF] | 1.01 | 0.861 | 0.481 | 0.601 | 0.511 | 0.842 | 0.894 | 0.629 | 0.872 | 0.557 | 0.683 | 0.75 | 0.646 | 0.706 | 1.16 | 0.494
DAKAIYDFTDT [PDK1_Y136] | 0.896 | 0.6 | 0.604 | 5.87 | 5.43 | 1.3 | 0.665 | 0.604 | 1.03 | 7.96 | 3.18 | 1.85 | 1.43 | 0.994 | 1.15 | 5.88
ERPIRYLNHQL [CEP152_Y268_Q265P] | 1.18 | 0.627 | 0.488 | 0.46 | 0.417 | 0.504 | 0.424 | 0.383 | 0.552 | 0.457 | 0.393 | 0.409 | 0.421 | 0.476 | 0.591 | 0.497
MFNPMYALFRT [HUWE1_Y4078] | 1.09 | 1.1 | 0.811 | 5.38 | 4.26 | 0.946 | 0.676 | 0.545 | 1.19 | 4.28 | 4.67 | 0.693 | 1.42 | 0.827 | 0.905 | 6.9
NKVQFYIPDMN [NCR1_Y84_K82Q] | 0.976 | 0.888 | 0.464 | 0.431 | 0.447 | 0.801 | 0.711 | 0.579 | 0.744 | 0.411 | 0.532 | 0.533 | 0.501 | 1.01 | 0.984 | 0.483
RLYARYFQGDL [PDK3_Y337] | 0.889 | 0.556 | 0.549 | 0.763 | 0.543 | 1.24 | 0.923 | 0.684 | 1.18 | 0.6 | 0.511 | 0.664 | 0.705 | 1.57 | 1.26 | 0.711
DGLALYTGSAL [COL6A3_Y524_S521L] | 0.695 | 0.46 | 0.36 | 0.635 | 0.758 | 1.09 | 0.723 | 0.479 | 0.749 | 0.614 | 0.901 | 0.936 | 0.968 | 0.901 | 1.17 | 0.55
DRLASNLDKVR [KRT10_Y160_Y160N] | 0.883 | 0.917 | 0.565 | 0.391 | 0.339 | 0.556 | 0.348 | 0.491 | 0.481 | 0.382 | 0.33 | 0.307 | 0.326 | 0.488 | 0.547 | 0.394
IKETHYMVDRC | 0.78 | 0.623 | 0.465 | 0.464 | 0.47 | 0.992 | 0.579 | 0.555 | 0.581 | 0.455 | 0.461 | 0.704 | 0.472 | 0.654 | 0.992 | 0.481
CKLFQYFLDHL [ATRX_Y1849_YF] | 1.57 | 1.41 | 1.34 | 0.524 | 0.635 | 1.37 | 0.873 | 0.647 | 0.933 | 0.536 | 0.585 | 0.605 | 0.693 | 1.3 | 1.41 | 0.526

Sequence | SH2 binding enrichment [1] | SH2 binding enrichment [2] | SH2 binding enrichment [3] | phosphorylation enrichment [4] | phosphorylation enrichment [5] | phosphorylation enrichment [6] | phosphorylation enrichment [7] | phosphorylation enrichment [8] | phosphorylation enrichment [9] | phosphorylation enrichment [10] | phosphorylation enrichment [11] | phosphorylation enrichment [12] | phosphorylation enrichment [13] | phosphorylation enrichment [14] | phosphorylation enrichment [15] | phosphorylation enrichment [16]
WPLKWYVPECI [ZAP70_Y506_A507V] | 0.841 | 0.488 | 0.499 | 0.387 | 0.44 | 1.06 | 0.804 | 0.496 | 0.757 | 0.428 | 0.572 | 0.618 | 0.688 | 1.02 | 1.18 | 0.382
LATINYPFEKG [NDUFS8_Y84_P79L] | 1.09 | 0.628 | 0.557 | 0.467 | 0.5 | 0.827 | 0.576 | 0.503 | 0.64 | 0.421 | 0.401 | 0.484 | 0.565 | 0.642 | 0.914 | 0.377
HLVSEYQQFQD [TUBB3_Y422_D417H_YF] | 0.869 | 0.75 | 0.544 | 0.728 | 0.338 | 1.07 | 0.54 | 0.741 | 0.559 | 0.577 | 0.524 | 0.916 | 0.819 | 0.917 | 0.974 | 0.336
TIMTNYNPNYC [ALK_Y1092_D1091N] | 1.12 | 0.715 | 0.591 | 0.45 | 0.46 | 0.758 | 0.549 | 0.545 | 0.558 | 0.565 | 0.548 | 0.5 | 0.619 | 0.639 | 0.901 | 0.407
HFGCVYYGTLL [MET_Y1093_H1094Y] | 0.841 | 0.715 | 0.578 | 8.21 | 1.76 | 1.88 | 2.19 | 2.69 | 1.82 | 3.77 | 2.43 | 1.42 | 1.5 | 2.13 | 2.43 | 1.11
EVESPYEVHDF [GIGYF2_Y1168_YF] | 0.785 | 0.832 | 0.486 | 5.45 | 12.3 | 1.93 | 0.81 | 0.593 | 0.825 | 5.32 | 1.44 | 0.922 | 0.837 | 1.23 | 1.3 | 0.974
HKGASYVFRLS [PTPRD_Y891] | 1.56 | 2.11 | 0.97 | 0.583 | 0.412 | 1 | 0.818 | 0.536 | 0.935 | 0.539 | 0.468 | 0.791 | 0.593 | 1.26 | 1.34 | 0.512
FQLPFYNMVPS [BMPR1A_Y458_YF] | 0.952 | 0.652 | 1.97 | 1.06 | 1.45 | 0.788 | 0.936 | 1.21 | 0.582 | 1.05 | 1.07 | 0.773 | 0.65 | 0.666 | 0.811 | 2.69
MPAVTYTPAMR [MEGF10_Y895] | 0.726 | 0.825 | 0.477 | 0.384 | 0.313 | 0.481 | 0.425 | 0.28 | 0.455 | 0.313 | 0.415 | 0.328 | 0.253 | 0.743 | 0.569 | 0.336
HEEDNYIEMIP [NWD2_Y566_L569M] | 0.553 | 0.747 | 0.467 | 1.16 | 0.938 | 3.02 | 3.82 | 3.93 | 1.86 | 0.67 | 0.822 | 1.19 | 1.68 | 2.39 | 2.85 | 1.13
MKGDYYRSLAE [YWHAG_Y131_Y133S] | 0.813 | 0.625 | 0.415 | 0.428 | 0.426 | 1.1 | 0.742 | 0.96 | 0.463 | 0.466 | 0.427 | 0.508 | 0.422 | 1.14 | 0.738 | 0.44
KTDKKYLMIKE [BAG3_Y451_E455K] | 0.897 | 0.836 | 0.499 | 0.392 | 0.373 | 0.64 | 0.526 | 0.423 | 0.616 | 0.368 | 0.368 | 0.439 | 0.426 | 0.636 | 0.877 | 0.408
KGVDRYNPENL [EIF3K_Y21_I18V] | 0.643 | 0.592 | 0.465 | 0.397 | 0.311 | 0.502 | 0.372 | 0.308 | 0.392 | 0.415 | 0.437 | 0.648 | 0.35 | 0.428 | 0.466 | 0.402
LMQAEYWHDPI [PPT1_Y185_V181M] | 0.999 | 0.68 | 0.983 | 0.54 | 0.773 | 1.36 | 4.42 | 6.07 | 0.724 | 0.835 | 0.769 | 0.863 | 1.2 | 1.16 | 1.56 | 0.557
ARMTNYGLPRF [TSPAN12_Y138_YF] | 0.887 | 1.33 | 0.505 | 0.519 | 0.409 | 0.547 | 0.501 | 0.42 | 0.496 | 0.401 | 0.413 | 0.542 | 0.424 | 0.503 | 0.636 | 0.511
RDSQLYAVDFE [MRPS34_Y34_YF] | 1.37 | 1.07 | 0.701 | 1.35 | 0.728 | 1.49 | 0.788 | 0.53 | 0.876 | 0.993 | 0.908 | 0.869 | 1.04 | 1.09 | 1.58 | 1.9
